This passage reports fold affinity against the unmethylated peptide results from article PMC11109945.

The experiment deals with T1, GST-WSB2 WDR (human).
T1 sequence (Q9NYS7 whole entry, looked up): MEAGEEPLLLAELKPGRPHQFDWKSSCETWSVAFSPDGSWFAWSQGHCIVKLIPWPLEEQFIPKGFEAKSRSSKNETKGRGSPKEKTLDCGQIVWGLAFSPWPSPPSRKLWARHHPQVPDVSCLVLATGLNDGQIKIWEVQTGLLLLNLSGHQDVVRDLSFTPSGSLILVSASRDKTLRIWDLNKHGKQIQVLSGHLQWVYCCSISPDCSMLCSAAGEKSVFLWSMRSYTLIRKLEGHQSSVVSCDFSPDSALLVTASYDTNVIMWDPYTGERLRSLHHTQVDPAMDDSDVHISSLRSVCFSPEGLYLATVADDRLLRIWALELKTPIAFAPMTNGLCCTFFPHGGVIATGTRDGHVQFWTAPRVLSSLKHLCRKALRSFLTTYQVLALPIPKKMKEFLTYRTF
Kind of experiment: pull-down + far-Western, overlay or dot blot; about 3 ug glutathione beads-bound GST-WSB2 WDR with 1.8 nmol biotin-labeled RelA peptide in 500 ul GST binding buffer, 4°C, 1 h; washed, eluted with 20 mM GSH, denatured, spotted on nitrocellulose; anti-biotin and anti-GST.

Ends that are not written are not given here. * marks the point of attachment. Biotin = O=C1N[C@H]2[C@H](CS[C@H]2CCCCC(=O)*)N1

On to Biotin-TFKSIMK(Me)K(Me)SPFSG [biotin-labeled K314/315 monomethylated RelA peptide (a.a. 308-320)], for which the fold affinity against the unmethylated peptide was 3 to 4 fold.
